From patent US20220227883A1 (published 2022)
“And” between values parts separate entries of the source, which are not always exact repeats. Equal entries are not always repeated.

T1: KRAS wild type peptide on HLA-A*02:01 (human)
T1 peptide: KLVVVGAGGV

T2: KRAS G12D peptide on HLA-A*02:01 (human)
T2 peptide: KLVVVGADGV

T3: KRAS G12V peptide on HLA-A*02:01 (human)
T3 peptide: KLVVVGAVGV

B1: KTCR-1 (TCR, V domains shown)
Valpha: TQLLEQSPQFLSIQEGENLTVYCNSSSVFSSLQWYRQEPGEGPVLLVTVVTGGEVKKLKRLTFQFGDARKDSSLHITAAQPGDTGLYLCAGEFESNAGNMLTFGGGTRLMVKP
Vbeta: DGGITQSPKYLFRKEGQNVTLSCEQNLNHDAMYWYRQDPGQGLRLIYYSQIVNDFQKGDIAEGYSVSREKKESFPLTVTSAQKNPTAFYLCASSIWLGPKGPGELFFGEGSRLTVL
B2: KTCR-2 (TCR, V domains shown)
Valpha: GESVGLHLPTLSVQEGDNSIINCAYSNSASDYFIWYKQESGKGPQFIIDIRSNMDKRQGQRVTVLLNKTVKHLSLQIAATQPGDSAVYFCAENRDTDKLIFGTGTRLQVFP
Vbeta: B1 Vbeta
B3: KTCR-3 (TCR, V domains shown)
Valpha: B1 Valpha
Vbeta: DTEVTQTPKHLVMGMTNKKSLKCEQHMGHRAMYWYKQKAKKPPELMFVYSYEKLSINESVPSRFSPECPNSSLLNLHLHALQPEDSALYLCASSLQITTDGYTFGSGTRLTVV

Assays:
[1] = target: T1, KRAS wild type peptide on HLA-A*02:01; assay: killing
Description: (§1) KTCR1, KRAS^G12V-specific, HLA-A*02:01-restricted TCR and KTCR2 and KTCR3, KRAS^G12D-specific, HLA-A*02:01-restricted TCRs were co cultured with K562-A*02:01 antigen presenting cells which were peptide pulsed with either the KRAS^G12D, KRAS^G12V, KRAS^WT peptide (10 μg/mL) for 5 hours at an effector to target cell ratio of 5:1.

[2] = target: HLA-A*02:01 presented KRAS^wild type epitope on cells (human); assay: cell-based or functional assay
[3] = target: HLA-A*02:01 presented KRAS^G12D epitope on cells (human); assay: cell-based or functional assay
[4] = target: HLA-A*02:01 presented KRAS^G12V epitope on cells (human); assay: cell-based or functional assay
[5] = target: T2, KRAS G12D peptide on HLA-A*02:01; assay: multimer staining
[6] = target: T3, KRAS G12V peptide on HLA-A*02:01; assay: multimer staining
[7] = target: A*02:01-KRAS^G12V tetramer (human) (UniProt P61769); assay: tetramer staining of TCR-transduced T cells, flow cytometry (FIG. 24)
[8] = target: T2, KRAS G12D peptide on HLA-A*02:01; assay: killing
Description: as §1

[9] = target: T3, KRAS G12V peptide on HLA-A*02:01; assay: killing
Description: as §1

| Binder | binding result [1] | Mean % cytotoxicity (cell lysis) of K562 + KRAS^Wild type target cells, FVS780 flow cytometry, 5 hours, effector to target 5:1 [2] [%] | Mean % cytotoxicity (cell lysis) of K562 A*02:01 + KRAS^G12D target cells, FVS780 flow cytometry, 5 hours, effector to target 5:1 [3] [%] | Mean % cytotoxicity (cell lysis) of K562 A*02:01 + KRAS^G12V target cells, FVS780 flow cytometry, 5 hours, effector to target 5:1 [4] [%] | binding result [8] | binding result [9] | also measured |
| --- | --- | --- | --- | --- | --- | --- | --- |
| B1 | no recognition | 2.9 | 4 | 16.5 | – | – | IFNγ ELISpot, KTCR-1 CD8+ T cells co-cultured with PANC-1 (HLA-A*02:01^+ KRAS^G12D), Mean (SFU of IFNγ/2.0 × 10^4 cell input) [3]: 19.5; IFNγ ELISpot, KTCR-1 CD8+ T cells co-cultured with PANC-1 (HLA-A*02:01^+ KRAS^G12D), replicate (SFU of IFNγ/2.0 × 10^4 cell input) [3]: 13 and 18; IFNγ ELISpot, KTCR-1 CD8+ T cells co-cultured with CFPAC-1 (HLA-A*02:01^+ KRAS^G12V), Mean (SFU of IFNγ/2.0 × 10^4 cell input) [4]: 42; IFNγ ELISpot, KTCR-1 CD8+ T cells co-cultured with CFPAC-1 (HLA-A*02:01^+ KRAS^G12V), replicate (SFU of IFNγ/2.0 × 10^4 cell input) [4]: 52 and 42; binding result [5]: no recognition; binding result [6]: recognises; percent of TCR transduced T cells tetramer positive [7]: > 90% |
| B2 | no recognition | 4.79 | 19.1 | 4 | recognises | no recognition | IFNγ ELISpot, KTCR-2 CD8+ T cells co-cultured with PANC-1 (HLA-A*02:01^+ KRAS^G12D), Mean (SFU of IFNγ/2.0 × 10^4 cell input) [3]: 98.5; IFNγ ELISpot, KTCR-2 CD8+ T cells co-cultured with PANC-1 (HLA-A*02:01^+ KRAS^G12D), replicate (SFU of IFNγ/2.0 × 10^4 cell input) [3]: 105 and 92; IFNγ ELISpot, KTCR-2 CD8+ T cells co-cultured with CFPAC-1 (HLA-A*02:01^+ KRAS^G12V), Mean (SFU of IFNγ/2.0 × 10^4 cell input) [4]: 11.5; IFNγ ELISpot, KTCR-2 CD8+ T cells co-cultured with CFPAC-1 (HLA-A*02:01^+ KRAS^G12V), replicate (SFU of IFNγ/2.0 × 10^4 cell input) [4]: 8 and 15 |
| B3 | no recognition | 2.82 | 16.3 | 2 | recognises | no recognition | IFNγ ELISpot, KTCR-3 CD8+ T cells co-cultured with PANC-1 (HLA-A*02:01^+ KRAS^G12D), Mean (SFU of IFNγ/2.0 × 10^4 cell input) [3]: 63; IFNγ ELISpot, KTCR-3 CD8+ T cells co-cultured with PANC-1 (HLA-A*02:01^+ KRAS^G12D), replicate (SFU of IFNγ/2.0 × 10^4 cell input) [3]: 73 and 53; IFNγ ELISpot, KTCR-3 CD8+ T cells co-cultured with CFPAC-1 (HLA-A*02:01^+ KRAS^G12V), Mean (SFU of IFNγ/2.0 × 10^4 cell input) [4]: 21; IFNγ ELISpot, KTCR-3 CD8+ T cells co-cultured with CFPAC-1 (HLA-A*02:01^+ KRAS^G12V), replicate (SFU of IFNγ/2.0 × 10^4 cell input) [4]: 13 and 19 |
